Laboratory results from US20220143094A1 (Chugai, published 2022).
Positions count from the first letter of the chain named.

B1: SKA0009H-F760mnN17/SKA0009Ls-k0MT//TR01H113-F760mnP17/L0011-k0a (bispecific antibody, human IgG1, kappa, N297A)
heavy 1: QSVEESGGRLVTPGTSLTLTCTVSGIDLSSYGMGWVRQAPGMGLEYIGIIYAAGRTYYASWVKGRFIISKTSTTVDLEMTSLTTEDTATYFCARHGSWYAGMDLWGPGTLVTVSSASTKGPSVFPLAPSSKSTSGGTAALGCLVKDYFPEPVTVSWNSGALTSGVHTFPAVLQSSGLYSLSSVVTVPSSSLGTQTYICNVNHKPSNTKVDKKVEPKSCDKTHTCPPCPAPELRGGPKVFLFPPKPKDTLMISRTPEVTCVVVDVSHEDPEVKFNWYVDGVEVHNAKTKPREEQYASTYRVVSVLTVLHQDWLNGKEYKCKVSNKALPAPIEKTISKAKGQPREPQVYTLPPSREEMTKNQVSLTCLVKGFYPSDIAVEWESNGQPENNYKTTPPYLDSDGSFFLYSKLTVDKSRWQQGNVFSCSVMHEALHNHYTQESLSLSP
light 1: AIEMTQTPSPVSAAVGGTVSINCQASEDIENYFAWYQQKPGQPPKLLIYDASELASGVPSRFSGSGSGTDFTLTISGVQSDDAATYYCQHADYAASSENTFGGGTEVVVKRTVAAPSVFIFPPSDEQLKSGTASVVCLLNNFYPREAKVQWKVDNALQSGNSQESVTEQDSKDSTYSLSSTLTLSKADYEKHKVYACEVTHQGLSSPVTKSFNRGEC
heavy 2: QVQLVESGGGVVQPGGSLRLSCAASGFTFSNAWMHWVRQAPGKGLEWVAQIKDKSQNYATYVAESVKGRFTISRADSKNSIYLQMNSLKTEDTAVYYCRYVHYAAGYGVDIWGQGTTVTVSSASTKGPSVFPLAPSSKSTSGGTAALGCLVKDYFPEPVTVSWNSGALTSGVHTFPAVLQSSGLYSLSSVVTVPSSSLGTQTYICNVNHKPSNTKVDKKVEPKSCDKTHTCPPCPAPELRGGPKVFLFPPKPKDTLMISRTPEVTCVVVDVSHEDPEVKFNWYVDGVEVHNAKTKPREEQYASTYRVVSVLTVLHQDWLNGKEYKCKVSNKALPAPIEKTISKAKGQPREPQVYTLPPSRKEMTKNQVSLTCLVKGFYPSDIAVEWESNGQPENNYKTTPPYLDSDGSFFLYSKLTVDKSRWQQGNVFSCSVMHEALHNHYTQKSLSLSP
light 2: DIVMTQSPLSLPVTPGEPASISCRSSQPLVHSNRNTYLHWYQQKPGQAPRLLIYKVSNRFSGVPDRFSGSGSGTDFTLKISRVEAEDVGVYYCGQGTQVPYTFGQGTKLEIKRTVAAPSVFIFPPSDEQLKSGTASVVCLLNNFYPREAKVQWKVDNALQSGNSQESVTEQDSKDSTYSLSSTLTLSKADYEKHKVYACEVTHQGLSSPVTKSFNRGEC
notes: Bispecific IgG made by mixing two homomers under 2-MEA reduction; also called anti-silent Fc antibody; silent Fc×CD3
B2: H0000-G1T3GK/GL4-k0a (antibody, human IgG1, kappa)
heavy: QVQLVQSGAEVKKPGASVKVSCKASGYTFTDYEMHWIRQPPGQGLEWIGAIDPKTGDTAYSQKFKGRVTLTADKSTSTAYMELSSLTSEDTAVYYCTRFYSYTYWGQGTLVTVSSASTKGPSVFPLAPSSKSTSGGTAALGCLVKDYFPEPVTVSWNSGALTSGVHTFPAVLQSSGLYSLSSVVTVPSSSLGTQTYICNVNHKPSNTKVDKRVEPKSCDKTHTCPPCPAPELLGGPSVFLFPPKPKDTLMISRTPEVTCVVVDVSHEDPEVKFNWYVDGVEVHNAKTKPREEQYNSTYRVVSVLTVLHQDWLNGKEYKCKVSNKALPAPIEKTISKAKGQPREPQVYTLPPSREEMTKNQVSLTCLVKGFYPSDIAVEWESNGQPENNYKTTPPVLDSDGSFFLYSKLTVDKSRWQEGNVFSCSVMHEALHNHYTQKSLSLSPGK
light: B1 light 2 with P28S, G94S, G96N, Q98H, Y101P
notes: Control antigen antibody with the same variable regions as m1 and a human IgG1 constant region carrying C-terminal GK; also called anti-GPC3 antibody with C-terminal addition of Gly-Lys; anti-GPC3 antibody having IgG1 constant region having C-terminal GK
B3: H0000-SG115/GL4-k0a (antibody)
heavy: QVQLVQSGAEVKKPGASVKVSCKASGYTFTDYEMHWIRQPPGQGLEWIGAIDPKTGDTAYSQKFKGRVTLTADKSTSTAYMELSSLTSEDTAVYYCTRFYSYTYWGQGTLVTVSSASTKGPSVFPLAPSSKSTSGGTAALGCLVKDYFPEPVTVSWNSGALTSGVHTFPAVLQSSGLYSLSSVVTVPSSSLGTQTYICNVNHKPSNTKVDKKVEPKSCDKTHTCPPCPAPELRRGPKVFLFPPKPKDTLMISRTPEVTCVVVDVSHEDPEVKFNWYVDGVEVHNAKTKPREEQYNSTYRVVSVLTVLHQDWLNGKEYKCKVSNKGLPSSIEKTISKAKGQPREPQVYTLPPSREEMTKNQVSLTCLVKGFYPSDIAVEWESNGQPENNYKTTPPVLDSDGSFFLYSKLTVDKSRWQQGNVFSCSVLHEALHAHYTRKELSLSP
light: B1 light 2 with P28S, G94S, G96N, Q98H, Y101P
notes: Anti-GPC3 antibody with the SG115 constant region, which is both silent Fc and delta GK-Fc; also called anti-GPC3 silent Fc antibody; anti-GPC3 silent Fc and anti-delta GK-Fc antibody
B4: YG55H-F760mnN17GK/YG55L-k0//TR01H113-F760mnP17GK/L0011-k0a (bispecific antibody, human IgG1, kappa, N297A)
heavy 1: QSLEESGGRLVTPGGSLTLTCTVSGIDLSNYAVGWVRQAPGKGLEYIGIIYASGSAYYASWAKGRFTISKTSSTTVDLKVTSLTTEDTATYFCARGYGRAFRIWGPGTLVTVSSASTKGPSVFPLAPSSKSTSGGTAALGCLVKDYFPEPVTVSWNSGALTSGVHTFPAVLQSSGLYSLSSVVTVPSSSLGTQTYICNVNHKPSNTKVDKKVEPKSCDKTHTCPPCPAPELRGGPKVFLFPPKPKDTLMISRTPEVTCVVVDVSHEDPEVKFNWYVDGVEVHNAKTKPREEQYASTYRVVSVLTVLHQDWLNGKEYKCKVSNKALPAPIEKTISKAKGQPREPQVYTLPPSREEMTKNQVSLTCLVKGFYPSDIAVEWESNGQPENNYKTTPPYLDSDGSFFLYSKLTVDKSRWQQGNVFSCSVMHEALHNHYTQESLSLSPGK
light 1: AVLTQTPSPVSAAVGGTVTISCQASQSVYNNNFLSWYQQKPGQRPKLLIYDASTLESGVPSRFSGSGSGTQFTLTISSVQCDDAATYYCLGGYDDHDNAFGGGTEVVVKRTVAAPSVFIFPPSDEQLKSGTASVVCLLNNFYPREAKVQWKVDNALQSGNSQESVTEQDSKDSTYSLSSTLTLSKADYEKHKVYACEVTHQGLSSPVTKSFNRGEC
heavy 2: QVQLVESGGGVVQPGGSLRLSCAASGFTFSNAWMHWVRQAPGKGLEWVAQIKDKSQNYATYVAESVKGRFTISRADSKNSIYLQMNSLKTEDTAVYYCRYVHYAAGYGVDIWGQGTTVTVSSASTKGPSVFPLAPSSKSTSGGTAALGCLVKDYFPEPVTVSWNSGALTSGVHTFPAVLQSSGLYSLSSVVTVPSSSLGTQTYICNVNHKPSNTKVDKKVEPKSCDKTHTCPPCPAPELRGGPKVFLFPPKPKDTLMISRTPEVTCVVVDVSHEDPEVKFNWYVDGVEVHNAKTKPREEQYASTYRVVSVLTVLHQDWLNGKEYKCKVSNKALPAPIEKTISKAKGQPREPQVYTLPPSRKEMTKNQVSLTCLVKGFYPSDIAVEWESNGQPENNYKTTPPYLDSDGSFFLYSKLTVDKSRWQQGNVFSCSVMHEALHNHYTQKSLSLSPGK
light 2: B1 light 2
notes: Bispecific IgG made by mixing two homomers under 2-MEA reduction; also called anti-delta GK-Fc antibody; delta GK-Fc×CD3

How the values were obtained:
H0000-G1T3GK/GL4-k0a = biological target: B2; assay: SPR (Biacore T200), multi-cycle kinetics; anti-GPC3 antibody captured on engineered GPC3 CM4 chip, bispecific antibody as analyte at 15.6-1000 nM
H0000-SG115/GL4-k0a = biological target: B3; assay: as above
engineered GPC3 = engineered GPC3 (Homo sapiens (Human), UniProt P51654 25-563); assay: SPR (Biacore T200); capture of the antibody on an engineered GPC3 CM4 chip
engineered GPC3, sequence (P51654 other isoform, or with tags, fused parts or gaps limits assumed): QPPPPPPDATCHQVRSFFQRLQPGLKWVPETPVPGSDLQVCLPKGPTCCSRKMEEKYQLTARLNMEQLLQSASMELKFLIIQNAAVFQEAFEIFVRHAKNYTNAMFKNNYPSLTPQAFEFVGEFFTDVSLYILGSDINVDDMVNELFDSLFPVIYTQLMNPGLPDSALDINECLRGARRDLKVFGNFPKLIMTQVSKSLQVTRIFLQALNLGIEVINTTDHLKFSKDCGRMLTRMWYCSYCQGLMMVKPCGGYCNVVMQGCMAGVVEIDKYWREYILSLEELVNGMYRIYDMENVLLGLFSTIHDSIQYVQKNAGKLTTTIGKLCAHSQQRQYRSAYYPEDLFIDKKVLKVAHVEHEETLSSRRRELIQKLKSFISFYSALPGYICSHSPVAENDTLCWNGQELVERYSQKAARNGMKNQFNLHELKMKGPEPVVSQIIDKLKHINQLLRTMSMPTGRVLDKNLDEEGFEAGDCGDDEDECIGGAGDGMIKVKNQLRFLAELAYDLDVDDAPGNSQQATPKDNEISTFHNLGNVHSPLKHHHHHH

Binder	kon (H0000-G1T3GK/GL4-k0a) [M⁻¹ s⁻¹]	Kd (H0000-SG115/GL4-k0a) [nM]	koff (H0000-SG115/GL4-k0a) [s⁻¹]	kon (H0000-SG115/GL4-k0a) [M⁻¹ s⁻¹]	binding result (engineered GPC3)
B1	2610	< 0.26	< 1e-05	38900	–
B2	–	–	–	–	binds
B3	–	–	–	–	binds
B4	–	41.7	0.00348	83500	–
